According to publication doi:10.1101/2020.05.28.119206:

Biological target: recombinant medaka ZI-3 precursor (Y74-V420) (medaka)
Test: SEC-MALS

Substance: recombinant medaka ZI-3 precursor (Y74-V420) (domain or fragment)
- stoichiometry N: 2
